According to patent US9567399 (dated 2017):
Numbering of substitutions follows the chain as printed.

How the values were obtained:
cyno PD-L1 FLAG = cyno PD-L1 FLAG (cynomolgus); assay: SPR, 37C
human PD-L1 His [1] = molecular target: human PD-L1 His (human); assay: SPR, 37C
human PD-L1 His [2] = molecular target: human PD-L1 His (human); assay: ELISA, competition with PD-1
human PD-L1 His [3] = molecular target: human PD-L1 His (human); assay: SPR, 25C
human PD-L1 His [4] = molecular target: human PD-L1 His (human); assay: SPR, 25C; remark: listed apart in the source
human PD-L1 His [5] = molecular target: human PD-L1 His (human); assay: ELISA, competition with PD-1; remark: listed apart in the source
human PD-L1 His [6] = molecular target: human PD-L1 His (human); assay: ELISA, competition with CD80
TIGIT = molecular target: T1, TIGIT (human, UniProt Q495A1); assay: SPR
T1 chain: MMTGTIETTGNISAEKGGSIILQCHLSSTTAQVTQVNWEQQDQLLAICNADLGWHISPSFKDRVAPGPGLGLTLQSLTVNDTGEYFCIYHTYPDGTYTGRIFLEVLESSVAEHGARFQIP

human PD-L1 His [7] = molecular target: human PD-L1 His (human); assay: SPR

Sequence of cyno PD-L1 FLAG (cynomolgus) (chain, as listed by the source): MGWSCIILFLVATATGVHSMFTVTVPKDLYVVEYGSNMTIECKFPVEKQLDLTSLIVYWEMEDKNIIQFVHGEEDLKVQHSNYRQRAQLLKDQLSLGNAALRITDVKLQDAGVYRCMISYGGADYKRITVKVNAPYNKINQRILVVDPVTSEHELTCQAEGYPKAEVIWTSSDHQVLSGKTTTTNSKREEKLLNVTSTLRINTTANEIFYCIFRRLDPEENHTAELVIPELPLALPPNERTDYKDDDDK

B1: 84G09 (antibody, V domains shown)
VH: EVQLVESGGGLVQPGRSLRLSCAASGFTFDDYAMHWVRQTPGKGLEWVSGISWKSNIIGYADSVKGRFTISRDNAKNSLYLQMNSLRAEDTALYYCARDITGSGSYGWFDPWGQGTLVTVSS
VL: DIQMTQSPSSLSASVGDRVTITCRASQSISSYLNWYQQKPGKAPKPLIYVASSLQSGVPSSFSGSGSGTDFTLTISSLQPEDFATYYCQQSYSNPITFGQGTRLEIK
B1 showed a Kd (cyno PD-L1 FLAG) of 520 pM, a Kd (human PD-L1 His [1]) of 430 pM and an IC50 (human PD-L1 His [2]) of 7900 pM.

B2: 1D05 VH V to A (antibody, V domains shown)
VH: EVQLVESGGGLVQPGRSLRLSCAASGFTFDDYAMHWVRQAPGKGLEWVSGISWIRTGIGYADSVKGRFTIFRDNAKNSLYLQMNSLRAEDTALYYCAKDMKGSGTYGGWFDTWGQGTLVTVSS
VL: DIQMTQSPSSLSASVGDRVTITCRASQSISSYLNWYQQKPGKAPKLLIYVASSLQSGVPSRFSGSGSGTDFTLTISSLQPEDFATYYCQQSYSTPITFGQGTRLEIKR
B2 was tested, and the Kd (human PD-L1 His [3]) was 330 pM.

B3: 1D05 IC46 (D1-9) (antibody)
chain 1: B2 VH with A40V
chain 2: not shown
With B3 the Kd (human PD-L1 His [4]) was 195 pM, the IC50 (human PD-L1 His [5]) was 1750 pM and the IC50 (human PD-L1 His [6]) was 1070 pM.

B4: 1D05 (antibody)
chain 1: B2 VH with A40V
chain 2: not shown
With B4 the binding result (TIGIT) was “no binding”, the Kd (human PD-L1 His [7]) was 350 pM and the Kd (cyno PD-L1 FLAG) was 430 pM. The Kd (human PD-L1 His [1]) was 420 pM.

B5: 1D05 IC45 (D5-9) (antibody)
chain 1: B2 VH with A40V
chain 2: not shown
With B5 the Kd (human PD-L1 His [4]) was 203 pM.

B6: 1D05 VH F to S (antibody, V domains shown)
VH: B2 VH with A40V, F71S
VL: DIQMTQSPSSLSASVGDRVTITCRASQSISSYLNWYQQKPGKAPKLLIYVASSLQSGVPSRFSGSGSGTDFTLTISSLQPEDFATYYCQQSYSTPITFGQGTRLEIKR
B6 gave a Kd (human PD-L1 His [3]) of 230 pM.

B7: 1D05 VH V to A and F to S (antibody, V domains shown)
VH: B2 VH with F71S
VL: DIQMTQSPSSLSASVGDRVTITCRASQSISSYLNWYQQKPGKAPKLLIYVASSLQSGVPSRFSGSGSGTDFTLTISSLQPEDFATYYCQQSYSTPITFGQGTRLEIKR
In the case of B7, the Kd (human PD-L1 His [3]) is reported as 230 pM.

B8: 1D05 VH V to A, VL V to A (antibody, V domains shown)
VH: B2 VH
VL: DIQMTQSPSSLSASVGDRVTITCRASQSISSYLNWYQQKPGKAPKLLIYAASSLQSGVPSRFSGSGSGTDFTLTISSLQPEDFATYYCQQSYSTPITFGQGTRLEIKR
B8 was tested, and the Kd (human PD-L1 His [3]) was 2800 pM.

B9: Bispecific 1, PD-L1 arm (antibody)
chain 1: B2 VH with A40V
chain 2: not shown
B9 showed a Kd (human PD-L1 His [7]) of 270 pM.

B10: 1D05 D9-7 (antibody)
chain 1: B2 VH with A40V
chain 2: not shown
Binder B10 has a Kd (human PD-L1 His [4]) of 200 pM and an IC50 (human PD-L1 His [6]) of 700 pM.

B11: Bispecific 2, PD-L1 arm (antibody)
chain 1: B2 VH with A40V
chain 2: not shown
For B11, the Kd (human PD-L1 His [7]) was 210 pM.

B12: 1D05 IC64 (D5-7) (antibody)
chain 1: B2 VH with A40V
chain 2: not shown
Binder B12 has a Kd (human PD-L1 His [4]) of 214 pM.
